Results taken from article PMC3575195 (Nature communications, 2012).

How the values were obtained:
[1] = target: TRPP3-mCherry (human) (UniProt Q9P0L9); assay: single-molecule photobleaching
[2] = target: the molecule itself; assay: single-molecule photobleaching
[3] = target: PKD1L3-mCherry (mouse, UniProt Q2EG98 21-2151); assay: single-molecule photobleaching
[4] = target: the molecule itself; assay: SEC-MALS

PKD1L3-mCherry, sequence (Q2EG98 21-2151): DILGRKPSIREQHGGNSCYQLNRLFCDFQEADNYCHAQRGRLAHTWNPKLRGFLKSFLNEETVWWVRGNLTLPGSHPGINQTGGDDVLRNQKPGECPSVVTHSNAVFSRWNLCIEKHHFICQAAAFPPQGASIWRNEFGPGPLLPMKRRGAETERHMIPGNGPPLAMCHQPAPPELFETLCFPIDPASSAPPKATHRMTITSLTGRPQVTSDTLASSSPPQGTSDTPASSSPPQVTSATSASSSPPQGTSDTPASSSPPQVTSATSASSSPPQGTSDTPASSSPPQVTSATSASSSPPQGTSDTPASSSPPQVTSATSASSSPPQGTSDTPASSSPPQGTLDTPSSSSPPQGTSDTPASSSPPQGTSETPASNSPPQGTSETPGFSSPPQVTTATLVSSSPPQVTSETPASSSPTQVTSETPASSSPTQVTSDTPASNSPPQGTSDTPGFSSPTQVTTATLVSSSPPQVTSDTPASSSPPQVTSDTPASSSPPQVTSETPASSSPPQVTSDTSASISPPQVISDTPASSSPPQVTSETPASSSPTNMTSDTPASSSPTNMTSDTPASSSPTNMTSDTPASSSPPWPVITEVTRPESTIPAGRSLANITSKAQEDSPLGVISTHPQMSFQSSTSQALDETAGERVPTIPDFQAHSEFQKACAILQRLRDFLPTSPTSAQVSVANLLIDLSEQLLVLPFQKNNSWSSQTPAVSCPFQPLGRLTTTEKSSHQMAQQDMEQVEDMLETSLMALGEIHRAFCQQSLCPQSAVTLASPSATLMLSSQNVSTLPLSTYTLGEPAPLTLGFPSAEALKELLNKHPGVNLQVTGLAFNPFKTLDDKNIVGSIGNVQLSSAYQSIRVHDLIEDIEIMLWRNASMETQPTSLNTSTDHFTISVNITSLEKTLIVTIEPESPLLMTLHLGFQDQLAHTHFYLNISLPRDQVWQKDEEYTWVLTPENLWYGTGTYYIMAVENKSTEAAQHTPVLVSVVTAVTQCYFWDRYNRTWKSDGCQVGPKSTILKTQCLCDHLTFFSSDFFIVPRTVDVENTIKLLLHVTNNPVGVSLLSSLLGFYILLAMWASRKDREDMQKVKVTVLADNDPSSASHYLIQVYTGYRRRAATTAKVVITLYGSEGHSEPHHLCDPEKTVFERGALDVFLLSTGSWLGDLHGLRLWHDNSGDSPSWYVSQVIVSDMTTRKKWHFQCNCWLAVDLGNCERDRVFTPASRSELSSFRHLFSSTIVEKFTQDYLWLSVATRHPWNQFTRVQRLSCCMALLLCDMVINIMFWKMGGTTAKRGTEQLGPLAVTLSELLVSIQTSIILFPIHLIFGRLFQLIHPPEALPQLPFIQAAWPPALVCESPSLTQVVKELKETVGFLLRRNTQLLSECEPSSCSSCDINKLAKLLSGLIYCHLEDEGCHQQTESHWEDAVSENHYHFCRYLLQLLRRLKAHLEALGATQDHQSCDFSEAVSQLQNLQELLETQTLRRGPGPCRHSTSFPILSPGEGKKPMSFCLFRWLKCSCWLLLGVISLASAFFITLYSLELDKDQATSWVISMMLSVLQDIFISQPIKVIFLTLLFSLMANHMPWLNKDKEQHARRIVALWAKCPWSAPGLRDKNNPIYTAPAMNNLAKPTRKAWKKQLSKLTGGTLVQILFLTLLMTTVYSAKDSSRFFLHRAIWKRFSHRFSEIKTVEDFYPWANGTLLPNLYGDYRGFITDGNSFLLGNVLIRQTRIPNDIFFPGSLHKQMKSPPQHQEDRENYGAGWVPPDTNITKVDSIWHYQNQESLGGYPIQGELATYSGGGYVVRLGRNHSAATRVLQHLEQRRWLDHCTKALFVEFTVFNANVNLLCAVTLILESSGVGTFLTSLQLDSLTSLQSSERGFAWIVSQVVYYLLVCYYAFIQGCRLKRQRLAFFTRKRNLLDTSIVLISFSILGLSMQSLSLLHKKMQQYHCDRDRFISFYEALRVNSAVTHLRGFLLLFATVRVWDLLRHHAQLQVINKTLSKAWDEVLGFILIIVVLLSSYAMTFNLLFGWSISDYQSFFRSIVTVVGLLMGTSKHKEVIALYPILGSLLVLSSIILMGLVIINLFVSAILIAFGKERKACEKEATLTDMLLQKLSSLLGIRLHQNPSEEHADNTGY

Molecule: PKD1L3-EGFP, Q2EG98 21-2151
- stoichiometry N [1]: 1

B1: TRPP3-EGFP (natural protein)
chain: MNAVGSPEGQELQKLGSGAWDNPAYSGPPSPHGTLRVCTISSTGPLQPQPKKPEDEPQETAYRTQVSSCCLHICQGIRGLWGTTLTENTAENRELYIKTTLRELLVYIVFLVDICLLTYGMTSSSAYYYTKVMSELFLHTPSDTGVSFQAISSMADFWDFAQGPLLDSLYWTKWYNNQSLGHGSHSFIYYENMLLGVPRLRQLKVRNDSCVVHEDFREDILSCYDVYSPDKEEQLPFGPFNGTAWTYHSQDELGGFSHWGRLTSYSGGGYYLDLPGSRQGSAEALRALQEGLWLDRGTRVVFIDFSVYNANINLFCVLRLVVEFPATGGAIPSWQIRTVKLIRYVSNWDFFIVGCEVIFCVFIFYYVVEEILELHIHRLRYLSSIWNILDLVVILLSIVAVGFHIFRTLEVNRLMGKLLQQPNTYADFEFLAFWQTQYNNMNAVNLFFAWIKIFKYISFNKTMTQLSSTLARCAKDILGFAVMFFIVFFAYAQLGYLLFGTQVENFSTFIKCIFTQFRIILGDFDYNAIDNANRILGPAYFVTYVFFVFFVLLNMFLAIINDTYSEVKEELAGQKDELQLSDLLKQGYNKTLLRLRLRKERVSDVQKVLQGGEQEIQFEDFTNTLRELGHAEHEITELTATFTKFDRDGNRILDEKEQEKMRQDLEEERVALNTEIEKLGRSIVSSPQGKSGPEAARAGGWVSGEEFYMLTRRVLQLETVLEGVVSQIDAVGSKLKMLERKGWLAPSPGVKEQAIWKHPQPAPAVTPDPWGVQGGQESEVPYKREEEALEERRLSRGEIPTLQRS
- stoichiometry N [2]: 3
- stoichiometry N [3]: 3

B2: MBP-TRPP3_CT (domain or fragment)
chain: KEELAGQKDELQLSDLLKQGYNKTLLRLRLRKERVSDVQKVLQGGEQEIQFEDFTNTLRELGHAEHEITELTATFTKFDRDGNRILDEKEQEKMRQDLEEERVALNTEIEKLGRSIVSSPQGKSGPEAARAGGWVSGEEFYMLTRRVLQLETVLEGVVSQIDAVGSKLKMLERKGWLAPSPGVKEQAIWKHPQPAPAVTPDPWGVQGGQESEVPYKREEEALEERRLSRGEIPTLQRS
- stoichiometry N [4]: 3
